In patent US10100114B2, “Antibodies specific for TROP-2 and their uses” (RINAT NEUROSCIENCE CORP., priority 2011, dated 2018):

Experiments:
[1] = biological target: T1, human Trop-1 (Homo sapiens, UniProt P16422, M115T); assay: Binding to human Trop-1; details: recombinant mouse IgG2a
T1 sequence (P16422 24-314 M115T): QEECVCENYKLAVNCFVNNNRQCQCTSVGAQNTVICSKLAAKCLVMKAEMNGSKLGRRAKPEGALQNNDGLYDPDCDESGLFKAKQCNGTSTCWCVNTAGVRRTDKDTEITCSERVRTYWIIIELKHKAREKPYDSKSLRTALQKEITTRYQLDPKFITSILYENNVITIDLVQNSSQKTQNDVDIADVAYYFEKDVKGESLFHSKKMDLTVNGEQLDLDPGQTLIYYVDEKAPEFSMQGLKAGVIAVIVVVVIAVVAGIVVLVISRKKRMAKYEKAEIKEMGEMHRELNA

[2] = system: A431 xenograft; assay: In vivo efficacy of anti-Trop-2 mouse IgGs, A431 xenograft model; parameters: species or system nu/nu mice; details: 20 mg/kg once a week, 3 doses
Description: In vivo efficacy studies of anti-Trop-2 mouse IgGs were performed with target-expressing A431 xenograft model. Two million A431 epidermoid cancer cells were implanted subcutaneously into 5-8 weeks old nu/nu mice until the tumor sizes reached around 100 mm^3. Animals were randomized by tumor sizes and dosing was done through bolus tail vein injection. Anti-Trop-2 antibodies were expressed as recombinant mouse IgG2a antibodies from 293F transient expression. […] Tumor volume was measured twice a week by a caliper device and calculated with the following formula: Tumor volume=(length×width^2)/2. Studies were terminated before tumor volumes reached 2000 mm^3. TGI (% tumor growth inhibition) was determined as [1-tumor sizes (treatment group)/tumor size (control group)]×100.

[3] = system: human Trop-2 domains swapped with Trop-1 (EpCAM) or mouse Trop-2 equivalent regions; assay: Domain mapping by domain swapping (Biacore); type: binding; details: for Binding to Trop-2 domain hybrid, domain 1: domain 1 replaced; for Binding to Trop-2 domain hybrid, domain 2: domain 2 replaced; for Binding to Trop-2 domain hybrid, domain 3: domain 3 replaced; for Binding to Trop-2 domain hybrid, domain 4: domain 4 replaced
Description: Domain mapping was done by swapping the Trop-2 extracellular domains with either Trop-1 (EpCAM) or mouse Trop-2 equivalent regions. […] These hybrid proteins were expressed as human Fc fusion proteins in 293F cells. Binding of anti-Trop-2 antibodies to these domain hybrids were determined by Biacore. […] Table 5. Definition of different domains of Trop-2 can be found, e.g., in Chong et al., J. Biol. Chem. 276(8):5804-13, 2001.

[4] = biological target: T2, huTrop-2 (Homo sapiens, UniProt P09758); assay: Biacore SPR affinity of anti-Trop-2 mouse antibodies; type: binding; details: mouse IgG captured by anti-mouse IgG; monomeric Trop-2 extracellular domain as analyte
T2 construct: Monomeric Trop-2 extracellular domain prepared from papain digestion of Trop-2-Fc fusion protein; Fc (cleaved yes); made in house
T2 sequence (P09758 27-274 limits assumed): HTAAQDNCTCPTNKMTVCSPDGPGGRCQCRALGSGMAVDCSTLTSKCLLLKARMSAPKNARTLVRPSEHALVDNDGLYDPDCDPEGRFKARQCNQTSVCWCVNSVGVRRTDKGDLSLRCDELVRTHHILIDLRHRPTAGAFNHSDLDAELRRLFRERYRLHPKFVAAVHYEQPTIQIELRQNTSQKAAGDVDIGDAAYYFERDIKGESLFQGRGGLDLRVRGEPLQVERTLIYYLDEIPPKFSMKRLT
Description: The affinities of anti-Trop-2 mouse antibodies generated from hybridomas were measured on a surface plasmon resonance Biacore™ 2000 or 3000 biosensor equipped with a research-grade CM5 sensor chip (Biacore™ AB, Uppsala, Sweden—now GE Healthcare). Anti-mouse IgG was first amine coupled to the CM5 sensor surface. Various anti-Trop-2 mouse IgGs were then captured by anti-mouse IgG. Monomeric Trop-2 extracellular domain prepared from papain digestion of Trop-2-Fc fusion protein was then injected as the analyte at 3 fold dilution series. […]

[5] = biological target: T3, mouse Trop-2 (Mus musculus, UniProt Q8BGV3); assay: Binding to mouse Trop-2; details: recombinant mouse IgG2a
T3 sequence (Q8BGV3 25-317): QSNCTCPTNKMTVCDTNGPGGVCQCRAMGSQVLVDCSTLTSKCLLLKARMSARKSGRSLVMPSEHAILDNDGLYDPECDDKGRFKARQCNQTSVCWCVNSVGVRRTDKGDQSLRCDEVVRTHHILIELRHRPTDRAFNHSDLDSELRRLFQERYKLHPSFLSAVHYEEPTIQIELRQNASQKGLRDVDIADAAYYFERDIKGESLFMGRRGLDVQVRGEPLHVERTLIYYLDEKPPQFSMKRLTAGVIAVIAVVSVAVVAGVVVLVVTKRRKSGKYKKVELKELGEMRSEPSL

[6] = system: SW620 (Trop-2 −) cells; assay: Flow cytometry binding, SW620 cells; type: cell-based; details: 1 ug antibody
Description: For A431 cell staining, 200,000 cells were incubated with 0.5 ug antibody in 100 uL binding buffer (PBS (Phosphate Buffered Saline)+0.5% BSA (Bovine Serum Albumin)), followed by incubation with Dylight488-conjugated goat anti-human (Fab′)2-specific secondary antibody from Jackson immunoresearch Laboratories (West Grove, Pa.). For Colo205 and SW620 cells, 300,000 cells were used with 1 ug of primary antibody, followed by AlexaFluor 647 anti-human (Fab′)2-specific secondary antibody from Jackson immunoresearch Laboratories (West Grove, Pa.).
Similar to Example 7a), binding of chimeric mouse and humanized anti-Trop-2 6G11 antibodies (expressed in human IgG1 subtype) were assessed on Trop-2 expressing (A431 and Colo205) and non-expressing (SW620) cells by flow cytometry. 300,000 cells were used with 1 ug of primary antibody, followed by AlexaFluor 647 anti-human (Fab′)2-specific secondary antibody.

[7] = system: Colo205 xenograft; assay: In vivo efficacy of Trop-2 ADCs, colorectal tumor Colo205 xenograft model; parameters: species or system nu/nu mice; details: single dose of 6 mg/kg, tail vein; FIG. 10
Description: In vivo efficacy study of Trop-2 ADCs was performed with target-expressing colo205 xenograft model. Three millions of colo205 colon cancer cells were implanted subcutaneously into 5-8 weeks old nu/nu mice until the tumor sizes reached ˜300 mm^3. […] Tumor volume is measured once a week by a Caliper device and calculated with the following formula: Tumor volume=(length×width^2)/2. Studies were terminated before their tumor volumes reached 2000 mm^3.

[8] = system: SW620 cells (Trop-2 non-expressing); assay: Cytotoxicity of ADCs (CellTiter-Glo), SW620; type: cell-based; details: Table 13; SW620, Trop2 expression −; 96 hours; concentration of total Ab
Description: Target expressing (A431, BxPC3, CAPAN-2 and Colo205) or non-expressing (SW620) cells were seeded on white walled clear bottom plates at 2000 cells/well for 24 hours before treatment. Cells were treated with 4 fold serially diluted antibody-drug conjugates in triplicates. Cell viability was determined by CellTiter-Glo® Luminescent Cell Viability Assay 96 (Promega, Madison Wis.) 96 hours after treatment. Relative cell viability was determined as percentage of untreated control. IC50 was calculated by Prism software.
2-methylalanyl-N-[(3R,4S,5S)-3-methoxy-1-{(2S)-2-[(1R,2R)-1-methoxy-2-methyl-3-oxo-3-{[(1S)-2-phenyl-1-(1,3-thiazol-2-yl)ethyl]amino}propyl]pyrrolidin-1-yl}-5-methyl-1-oxoheptan-4-yl]-N-methyl-L-valinamide is a novel auristatin, as described in U.S. Application Nos. 61/561,255 and 61/676,423. Method of conjugating Trop-2 antibodies using transglutaminase tags is described in Example 9. Target expressing or non-expressing (SW620) cells were seeded on white walled clear bottom plates at 2000 (A431, BxPC3, NCI-H292, NCI-H1650, MDA-MB-468 and SW620), 2500 (Calu-3) or 3000 (OVCAR3 and SKBR3) cells per well for 24 hours before treatment. Cells were treated with 4 fold serially diluted antibody-drug conjugates in triplicates. Cell viability was determined by CellTiter-Glo® Luminescent Cell Viability Assay 96 (Promega, Madison, Wis.) 96 hours after treatment. Relative cell viability was determined as percentage of untreated control. IC50 was calculated by GraphPad Prism 5 software and expressed as concentration (nM) of total Ab.

[9] = biological target: T4, human Trop-2-hFc (Homo sapiens, UniProt P09758); assay: Biacore SPR affinity of chimeric and humanized 7E6 Fab, human Trop-2; type: binding; details: recombinant Fab fragments injected over captured human Trop-2-hFc
T4 construct: Monomeric Trop-2 extracellular domain prepared from papain digestion of Trop-2-Fc fusion protein
T4 sequence (P09758 27-274 limits assumed): T2 sequence (P09758 27-274 limits assumed)
Source text: (§1) The human Trop-2-hFc or cynomolgus monkey Trop-2-hFc proteins were captured on the CM5 EDA chip 37 sensor surface coupled with anti-human Fc.

[10] = system: cynomolgus monkey Trop-2-hFc; assay: Biacore SPR affinity of chimeric and humanized 7E6 Fab, cynomolgus Trop-2; type: binding; details: recombinant Fab fragments injected over captured cynomolgus monkey Trop-2-hFc
Source text: as §1

[11] = biological target: T5, human Trop2-ECD (Homo sapiens, UniProt P09758); assay: Proteon XPR36 SPR of Fab/human Trop2-ECD interactions; type: binding; details: amine-coupled Fab; monovalent human Trop2-ECD 6, 30 and 150 nM; 25° C., pH 7.4
T5 sequence (P09758 27-274 limits assumed): T2 sequence (P09758 27-274 limits assumed)
Description: Analysis of Fab/human Trop2-ECD (Extracellular Domain) interactions was performed using a Bio-Rad Proteon XPR36 Surface Plasmon Resonance (SPR) biosensor (Bio-Rad, Hercules, Calif.) equipped with a GLC sensor chip. The assay temperature was 25° C., and the assay buffer was 10 mM Sodium Phosphate, 150 mM NaCl, 0.05% Tween-20, pH 7.4. An array of amine-coupled Fabs was prepared using the methodology described in Abdiche et al. (Anal. Biochem., 411: 139-151 (2011)). In each analysis cycle, monovalent human Trop2-ECD antigen was flowed at 30 μL/min over the immobilized Fabs for 3 minutes followed by a buffer wash for 15 minutes to monitor dissociation of the Fab/Trop2 complex. The sensor surface was regenerated between analysis cycles, using three 18-second injections of a 2:1 mixture (by volume) of Pierce IgG Elution buffer:4 M NaCl (Pierce, Rockford, Ill.). Binding and regeneration cycles were repeated at human Trop2-ECD concentrations of 6, 30 and 150 nM. The resulting data were fit to a 1:1 Langmuir binding model using the Proteon evaluation software.

B1: 6G11: anti-Trop-2 mouse antibody, VL SEQ ID NO: 8, VH SEQ ID NO: 9; also used as chimeric human IgG1 (antibody, V domains shown)
VH: QVQLQQPGAELVRPGASVKLSCKASGYTFTSYWINWVKQRPGHGLEWIGNIYPSDSYSNYNQKFKDKATLTVDKSSSTAYMQVSSPTSEDSAVYYCTYGSSFDYWGQGTTVTVSS
VL: DILLTQSPAILSVSPGERVSFSCRASQTIGTSIHWYQQRTNGSPRLLIKYASESISGIPSRFSGSGSGTDFTLSINSVESEDIADYYCQQSNSWPFTFGSGTKLEIK
With B1 the “binding to human Trop-1” value [1] was “do not bind”, the “A431 xenograft tumor growth in vivo” value [2] was “inhibit A431 xenograft tumor growth” and the “Mean tumor volume (mm3) on day 27” value ([2]; Table 7C) was 444.8 mm3. For the same molecule, the “TGI (Tumor growth inhibition)” value ([2]; Table 7C) was 57%, the “human Trop-2 domains bound” value ([3]; defined by loss or reduction in binding on domain swapping) was “domain 1” and the “Binding to Trop-2 domain hybrid, domain 1” value ([3]; domain replacement hTrop1) was “+”. For the same molecule, the “Binding to Trop-2 domain hybrid, domain 2” value ([3]; domain replacement hTrop1) was “−”, the “Binding to Trop-2 domain hybrid, domain 3” value ([3]; domain replacement hTrop1) was “−” and the “Binding to Trop-2 domain hybrid, domain 4” value ([3]; domain replacement hTrop1) was “−”. The “Binding to Trop-2 domain hybrid, domain 1” value ([3]; domain replacement mTrop-2) was “+”, the “Binding to Trop-2 domain hybrid, domain 2” value ([3]; domain replacement mTrop-2) was “−” and the “Binding to Trop-2 domain hybrid, domain 3” value ([3]; domain replacement mTrop-2) was “−”. The “Binding to Trop-2 domain hybrid, domain 4” value ([3]; domain replacement mTrop-2) was “−”, the “ka” value [4] was 270000 M⁻¹ s⁻¹ and the “kd” value [4] was 0.0086 s⁻¹. For the same molecule, the “binding to mouse Trop-2” value [5] was “do not bind”, the “% positive” value ([6]; Table 11, 300,000 cells) was 2.5% and the MFI ([6]; Table 11, 300,000 cells) was 134.

B2: h7E6SVG-LCQ03/K222R-vc0101: h7E6SVG K222R with light chain LCQ03 tag (SEQ ID NO: 78) conjugated with AcLys-vc-PABC-0101 (conjugate)
VH: QVQLQESGPGLVKPSETLSLTCTVSGGSISSYGVHWIRQPPGKGLEWIGVIWTSGVTDYNSALMGRVTISVDTSKNQFSLKLSSVTAADTAVYYCARDGDYDRYTMDYWGQGTLVTVSS
VL: DIVMTQSPDSLAVSLGERATINCRASKSVSTSGYSYMHWYQQKPGQPPKLLIYLASNLESGVPDRFSGSGSGTDFTLTISSLQAEDVAVYYCQHSRELPYTFGQGTKLEIK
With B2 the “tumor response, Colo205 xenograft” value [7] was “tumor regression” and the IC50 [8] was greater than 267 nM.

B3: h7E6_SVG: humanized anti-Trop-2 antibody, VL SEQ ID NO: 3, VH SEQ ID NO: 5 (antibody, V domains shown)
VH: B2 VH
VL: B2 VL
In the case of B3, the “ka” value [9] is reported as 97600 M⁻¹ s⁻¹, the “kd” value [9] is reported as 0.000435 s⁻¹ and the “ka” value [10] is reported as 265000 M⁻¹ s⁻¹. For the same molecule, the “kd” value [10] was 0.00189 s⁻¹, the “ka” value [11] was 170000 M⁻¹ s⁻¹ and the “kd” value [11] was 0.00069 s⁻¹. For the same molecule, the “% positive” value ([6]; Table 10, 300,000 cells) was 2.4% and the MFI ([6]; Table 10, 300,000 cells) was 139.
